These results are taken from US20190275084A1 (KYMAB, published 2019).

Assay [1] concerns the target T1, Recombinant Human OX40L (Leader sequence, Isoleucine Zipper and FLAG Sequence Included) (human). Put plainly: cell-based or functional assay.
Assay [2] addresses T2, Recombinant Rhesus OX40L (Leader Sequence, FLAG and Isoleucine zipper included) (Rhesus (Macaca mulatta)).
T2 construct: also called RhsOX40L; Rhesus monkey OX40L
Put plainly: SPR (ProteOn XPR36), antibody captured, rhesus OX40L at 256 nM, 25 C; CNROR = cannot resolve off-rate. Here is the method:
(§1) SPR analysis was carried out using the ProteOn™ XPR36 Array System (BioRad). Anti-mouse IgG (GE Healthcare BR-1008-38) was immobilised on a GLM biosensor surface using amine coupling, the surface was then blocked using 1 M ethanolamine. Test antibodies were captured on this surface and recombinant hOX40L (human and rhesus) were used at a single concentration of 256 nM, binding sensorgrams were double referenced using a buffer injection (i.e. 0 nM) to remove baseline drift and injection artefacts. Apparent affinities for the OX40L-antibody interaction were determined using the 1:1 model inherent to the ProteOn XPR36 analysis software. The assay was run using HBS-EP (Teknova) as running buffer and carried out at 25° C.

Assay [3] has as its target T1, Recombinant Human OX40L (Leader …). Description: HTRF receptor neutralisation: antibody titrated against biotinylated hOX40L and OX40RFc-AF647; mean +/- SEM of three experiments.
The target is the same in assay [4]. Put plainly: HTRF ligand/receptor neutralisation: antibody titrated against biotinylated hOX40L; the blocked ligand is OX40RFc-AF647; streptavidin cryptate detection. How it is done: Fully human purified IgG or other inhibitor were tested in order to establish the clone potency as measured by IC₅₀ values in the assay. Antibodies recombinantly expressed and purified were titrated by diluting in HTRF assay buffer and 5 μL of this titration transferred to a white 384 well low volume non-binding surface polystyrene plate (Greiner). Biotinylated OX40L was diluted in HTRF assay buffer to a working concentration of 2.4 nM and 5 μL added. […] Streptavidin cryptate (CISBIO) was diluted in HTRF assay buffer to working concentration of 1:100 and 5 μL added to all wells of the plate. Plates were covered, protected from light and incubated at room temperature for 3 hrs prior to reading time resolved fluorescence at 620 nm and 665 nm emission wavelengths using an EnVision plate reader (Perkin Elmer). Data were analysed by calculating delta F as described in Equation 4 and percentage of receptor for each sample according to Equation 5 or in some cases Equation 6. IC₅₀ values were determined using GraphPad Prism software by curve fitting using a four-parameter logistic equation (Equation 7) (FIG. 1).

The target is the same in assay [5]. Put plainly: SPR (ProteOn XPR36), apparent affinity, antibody captured on anti-mouse IgG, hOX40L at 256 nM, 1:1 model, 25 C. How it is done:
as §1

T1 sequence (chain, as listed by the source limits assumed): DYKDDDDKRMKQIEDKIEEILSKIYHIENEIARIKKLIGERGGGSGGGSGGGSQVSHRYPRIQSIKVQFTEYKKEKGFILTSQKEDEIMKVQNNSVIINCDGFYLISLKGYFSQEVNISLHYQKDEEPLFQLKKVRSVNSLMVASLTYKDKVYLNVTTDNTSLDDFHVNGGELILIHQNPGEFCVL
T2 sequence (chain, as listed by the source limits assumed): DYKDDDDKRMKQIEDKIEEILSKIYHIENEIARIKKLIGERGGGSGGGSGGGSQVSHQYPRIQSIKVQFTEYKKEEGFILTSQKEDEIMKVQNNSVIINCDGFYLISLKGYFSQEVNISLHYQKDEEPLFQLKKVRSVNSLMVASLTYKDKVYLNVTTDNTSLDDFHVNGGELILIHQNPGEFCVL

B1: 2D10 (human) (antibody, human IgG4 S228P, kappa, V domains shown)
VH: EVQLVESGGGLVQPGGSLRLSCAASGFTFSNYAMNWVRQAPGKGLEWVSTISGSGGATRYADSVKGRFTISRDNSRNTVYLQMNSLRVEDTAVFYCTKDRLIMATVRGPYYYGMDVWGQGTTVTVSS
VL: DIQMTQSPSSLSASVGDRVTITCRASQSISSYLNWYQQKPGKAPNLLIYAASSLQSGVPSRFSGSGSETDFTLTISSLQPEDFATYYCQQSHSVSFTFGPGTKVDIKR
notes: Recombinant fully human IgG4-PE/kappa; also called 02D10 IgG4-PE; 2D10 IgG4PE
As for B1, the “Primary T-cell Assay IC50 nM (recombinant OX40L induced IL2 release from primary human T-cells)” value in assay [1] worked out at 0.81 nM. The binding result in assay [2] is given as “binds”. Moreover, in assay [3], the IC50 came out at 0.75 nM. Also, in assay [4], the “IC50 (read off the curve)” value is about 0.8 nM.

B2: 2D10 (hybridoma) (antibody, V domains shown)
VH: B1 VH
VL: DIQMTQSPSSLSASVGDRVTITCRASQSISSYLNWYQQKPGKAPNLLIYAASSLQSGVPSRFSGSGSETDFTLTISSLQPEDFATYYCQQSHSVSFTFGPGTKVDIK
notes: Purified from hybridoma supernatant as a murine/human chimeric antibody (human variable domains, mouse constant regions); also called 02D10
B2: the binding result in assay [2] is given as “binds”.

B3: 9H04 (hybridoma) (antibody, V domains shown)
VH: QVQLVESGGGLVKPGGSLRLSCAASRFTLSDYYMTWIRQAPGKGLEWVSYISSSGNTIYYADSVKGRFTISRDNAKNSLYLQMNSLRAEDTAVYYCARDLSGSYWDYYYGMDVWGQGTTVTVSS
VL: AIQLTQSPSSLSTSVGDRVTIACRASQGINNALAWYQQKPGKAPKLLIYDASSLESGVPSRFSGSGSGTDFTLTISSLQPEDFATYYCQQFNSYPRTFGQGTKVEIK
notes: Purified from hybridoma supernatant as a murine/human chimeric antibody (human variable domains, mouse constant regions); also called 09H04
As for B3, in assay [5], the Kd amounted to 5.3 nM.

B4: 10A07 (human) (antibody, V domains shown)
VH: EVQLVESGGVLVQPGGSLRLSCAASGFTFSSYIMTWVRQAPGKGLEWVSGISGSGGGTYYADSMKGRFTISRDNSKNTLYLQMNSLRVEDTAVYYCAKDRLGPITLVRGGYYYGMDVWGQGTTVTVSS
VL: DIQMTQSPSSLSASVGDRVTITCRASQSISDYLNWYQQKPGKAPKFLIYAASSLQSGVPSRFSGSGSGTDFTLTVSSLQPEDFATYYCQQSYSTPRTFGQGTRVEIKR
notes: also called 10A07 IgG4PE; 10A7 IgG4-PE
With B4, the “Primary T-cell Assay IC50 nM (recombinant OX40L induced IL2 release from primary human T-cells)” value in assay [1] was 0.83 nM. Besides, in assay [2], the binding result is “binds”. The IC50 in assay [3] turned out to be 1.2 nM. Also, in assay [4], the “IC50 (read off the curve)” value is about 1 nM.

B5: 10A07 (hybridoma) (antibody, V domains shown)
VH: B4 VH
VL: DIQMTQSPSSLSASVGDRVTITCRASQSISDYLNWYQQKPGKAPKFLIYAASSLQSGVPSRFSGSGSGTDFTLTVSSLQPEDFATYYCQQSYSTPRTFGQGTRVEIK
notes: Purified from hybridoma supernatant as a murine/human chimeric antibody (human variable domains, mouse constant regions); also called 10A7
For the molecule B5, the binding result in assay [2] is “binds”.

B6: 19H01 (hybridoma) (antibody, V domains shown)
VH: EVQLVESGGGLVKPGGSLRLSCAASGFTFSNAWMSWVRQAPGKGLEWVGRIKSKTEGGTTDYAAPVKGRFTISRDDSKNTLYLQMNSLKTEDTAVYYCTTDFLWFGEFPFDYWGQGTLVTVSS
VL: DIQMTQSPSSLSASVGDRVTITCRASQGISNYLAWYQQKPGKIPKLLIYAASTLQSGVPSRFSGSGSGTDFTLTISSLQPEDVATYYCQKYNSAPRTFGQGTKVEIK
notes: Purified from hybridoma supernatant as a murine/human chimeric antibody (human variable domains, mouse constant regions)
Take B6: the Kd in assay [5] came out at 2.2 nM.

Usually IC50 stands for the concentration at which inhibition is half-maximal.
